B1: library; numbered along this chain (parent)
chain: MAAAAAAAAEQQSSNGPVKKSMREKAVERRSVNKEHNSNFKAGYIPIDEDRLHKTGLRGRKGNLAICVIILLFILAVINLIITLVIWAVIRIGPNGCDSMEFHESGLLRFKQVSDMGVIHPLYKSTVGGRRNENLVITGNNQPIVFQQGTTKLSVENNKTSITSDIGMQFFDPRTQNILFSTDYETHEFHLPSGVKSLNVQKASTERITSNATSDLNIKVDGRAIVRGNEGVFIMGKTIEFHMGGNMELKAENSIILNGSVMVSTTRLPSSSSGDQLGSGDWVRYKLCMCADGTLFKVQVTSQNMGCQISDNPCGNTH

Variants of: B1
Test: SGCB cell-surface expression functional score (HA stain, bin4 vs bin1, normalised to synonymous) (log10 ratio); higher = more cell-surface SGCB (functional)
Experimental: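 Deep mutational scan of full-length human SGCB (YFP-SGCB-HA, NNN codon sublibraries A-F) delivered by lentivirus at low MOI into ADG-HEK293 cells stably expressing SGCA, SGCD and SGCG. YFP-positive cells were stained for surface HA on unpermeabilized cells and FACS-sorted into bins. The functional score is log10(frequency in high bin 4 / frequency in low bin 1), normalised per chunk so that synonymous variants have mean 0 and SD 0.5. Scores are the median over codons and over duplicate biological replicates; scores below -0.5 are called non-functional. Scale: negative means deleterious.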

Variant	SGCB cell-surface expression functional score (log10)
MAAAAAAAAEQYSSNGPVKKSMREKAVERRSVNKEHNSNFKAGYIPIDEDRLHKTGLRGRKGNLAICVIILLFILAVINLIITLVIWAVIRIGPNGCDSMEFHESGLLRFKQVSDMGVIHPLYKSTVGGRRNENLVITGNNQPIVFQQGTTKLSVENNKTSITSDIGMQFFDPRTQNILFSTDYETHEFHLPSGVKSLNVQKASTERITSNATSDLNIKVDGRAIVRGNEGVFIMGKTIEFHMGGNMELKAENSIILNGSVMVSTTRLPSSSSGDQLGSGDWVRYKLCMCADGTLFKVQVTSQNMGCQISDNPCGNTH [Q12Y]	-0.05
MAAAAAAAAEQKSSNGPVKKSMREKAVERRSVNKEHNSNFKAGYIPIDEDRLHKTGLRGRKGNLAICVIILLFILAVINLIITLVIWAVIRIGPNGCDSMEFHESGLLRFKQVSDMGVIHPLYKSTVGGRRNENLVITGNNQPIVFQQGTTKLSVENNKTSITSDIGMQFFDPRTQNILFSTDYETHEFHLPSGVKSLNVQKASTERITSNATSDLNIKVDGRAIVRGNEGVFIMGKTIEFHMGGNMELKAENSIILNGSVMVSTTRLPSSSSGDQLGSGDWVRYKLCMCADGTLFKVQVTSQNMGCQISDNPCGNTH [Q12K]	0.02
MAAAAAAAAEQMSSNGPVKKSMREKAVERRSVNKEHNSNFKAGYIPIDEDRLHKTGLRGRKGNLAICVIILLFILAVINLIITLVIWAVIRIGPNGCDSMEFHESGLLRFKQVSDMGVIHPLYKSTVGGRRNENLVITGNNQPIVFQQGTTKLSVENNKTSITSDIGMQFFDPRTQNILFSTDYETHEFHLPSGVKSLNVQKASTERITSNATSDLNIKVDGRAIVRGNEGVFIMGKTIEFHMGGNMELKAENSIILNGSVMVSTTRLPSSSSGDQLGSGDWVRYKLCMCADGTLFKVQVTSQNMGCQISDNPCGNTH [Q12M]	-0.09
MAAAAAAAAEQNSSNGPVKKSMREKAVERRSVNKEHNSNFKAGYIPIDEDRLHKTGLRGRKGNLAICVIILLFILAVINLIITLVIWAVIRIGPNGCDSMEFHESGLLRFKQVSDMGVIHPLYKSTVGGRRNENLVITGNNQPIVFQQGTTKLSVENNKTSITSDIGMQFFDPRTQNILFSTDYETHEFHLPSGVKSLNVQKASTERITSNATSDLNIKVDGRAIVRGNEGVFIMGKTIEFHMGGNMELKAENSIILNGSVMVSTTRLPSSSSGDQLGSGDWVRYKLCMCADGTLFKVQVTSQNMGCQISDNPCGNTH [Q12N]	0.01
MAAAAAAAAEQLSSNGPVKKSMREKAVERRSVNKEHNSNFKAGYIPIDEDRLHKTGLRGRKGNLAICVIILLFILAVINLIITLVIWAVIRIGPNGCDSMEFHESGLLRFKQVSDMGVIHPLYKSTVGGRRNENLVITGNNQPIVFQQGTTKLSVENNKTSITSDIGMQFFDPRTQNILFSTDYETHEFHLPSGVKSLNVQKASTERITSNATSDLNIKVDGRAIVRGNEGVFIMGKTIEFHMGGNMELKAENSIILNGSVMVSTTRLPSSSSGDQLGSGDWVRYKLCMCADGTLFKVQVTSQNMGCQISDNPCGNTH [Q12L]	0.03
MAAAAAAAAEQSSSNGPVKKSMREKAVERRSVNKEHNSNFKAGYIPIDEDRLHKTGLRGRKGNLAICVIILLFILAVINLIITLVIWAVIRIGPNGCDSMEFHESGLLRFKQVSDMGVIHPLYKSTVGGRRNENLVITGNNQPIVFQQGTTKLSVENNKTSITSDIGMQFFDPRTQNILFSTDYETHEFHLPSGVKSLNVQKASTERITSNATSDLNIKVDGRAIVRGNEGVFIMGKTIEFHMGGNMELKAENSIILNGSVMVSTTRLPSSSSGDQLGSGDWVRYKLCMCADGTLFKVQVTSQNMGCQISDNPCGNTH [Q12S]	0.04
MAAAAAAAAEQISSNGPVKKSMREKAVERRSVNKEHNSNFKAGYIPIDEDRLHKTGLRGRKGNLAICVIILLFILAVINLIITLVIWAVIRIGPNGCDSMEFHESGLLRFKQVSDMGVIHPLYKSTVGGRRNENLVITGNNQPIVFQQGTTKLSVENNKTSITSDIGMQFFDPRTQNILFSTDYETHEFHLPSGVKSLNVQKASTERITSNATSDLNIKVDGRAIVRGNEGVFIMGKTIEFHMGGNMELKAENSIILNGSVMVSTTRLPSSSSGDQLGSGDWVRYKLCMCADGTLFKVQVTSQNMGCQISDNPCGNTH [Q12I]	-0.43
MAAAAAAAAEQHSSNGPVKKSMREKAVERRSVNKEHNSNFKAGYIPIDEDRLHKTGLRGRKGNLAICVIILLFILAVINLIITLVIWAVIRIGPNGCDSMEFHESGLLRFKQVSDMGVIHPLYKSTVGGRRNENLVITGNNQPIVFQQGTTKLSVENNKTSITSDIGMQFFDPRTQNILFSTDYETHEFHLPSGVKSLNVQKASTERITSNATSDLNIKVDGRAIVRGNEGVFIMGKTIEFHMGGNMELKAENSIILNGSVMVSTTRLPSSSSGDQLGSGDWVRYKLCMCADGTLFKVQVTSQNMGCQISDNPCGNTH [Q12H]	0.03
MAAAAAAAAEQWSSNGPVKKSMREKAVERRSVNKEHNSNFKAGYIPIDEDRLHKTGLRGRKGNLAICVIILLFILAVINLIITLVIWAVIRIGPNGCDSMEFHESGLLRFKQVSDMGVIHPLYKSTVGGRRNENLVITGNNQPIVFQQGTTKLSVENNKTSITSDIGMQFFDPRTQNILFSTDYETHEFHLPSGVKSLNVQKASTERITSNATSDLNIKVDGRAIVRGNEGVFIMGKTIEFHMGGNMELKAENSIILNGSVMVSTTRLPSSSSGDQLGSGDWVRYKLCMCADGTLFKVQVTSQNMGCQISDNPCGNTH [Q12W]	-0.29
